# Measurements published in paper doi:10.1101/2023.06.10.544460 (bioRxiv, 2023).
# “And” between values parts separate entries of the source, which are not always exact repeats. Equal values may be shown once.
# B1: HMPV nucleoprotein N, full length, strain NL1-00 (A1), RNA-bound oligomers (N-RNA) (natural protein, UniProt Q91F57 1-394, looked up)
# chain: MSLQGIHLSDLSYKHAILKESQYTIKRDVGTTTAVTPSSLQQEITLLCGEILYAKHADYKYAAEIGIQYISTALGSERVQQILRNSGSEVQVVLTRTYSLGKIKNNKGEDLQMLDIHGVEKSWVEEIDKEARKTMATLLKESSGNIPQNQRPSAPDTPIILLCVGALIFTKLASTIEVGLETTVRRANRVLSDALKRYPRMDIPKIARSFYDLFEQKVYHRSLFIEYGKALGSSSTGSKAESLFVNIFMQAYGAGQTMLRWGVIARSSNNIMLGHVSVQAELKQVTEVYDLVREMGPESGLLHLRQSPKAGLLSLANCPNFASVVLGNASGLGIIGMYRGRVPNTELFSAAESYAKSLKESNKINFSSLGLTDEEKEAAEHFLNVSDDSQNDYE
# Target: the molecule itself
# Test: cryo-EM structure
protein,measurement,value
B1,stoichiometry N,10 protomers and 11 protomers and 12 protomers and ≥ 12 protomers
